Article PMC5734868 (ACS infectious diseases, 2017)

Target: the molecule itself
Experiment: SDS-PAGE of semi-denatured protein

B1: PanD 114Stop (aspartate decarboxylase domain without the C-terminal tail) (domain or fragment)
chain: MLRTMLKSKIHRATVTCADLHYVGSVTIDADLMDAADLLEGEQVTIVDIDNGARLVTYAITGERGSGVIGINGAAAHLVHPGDLVILIAYATMDDARARTYQPRIVFVDAYNKP
binding result: binds
